{"source": "paper doi:10.1101/2025.06.17.660082", "target": "Biotinylated SP16 (human) (UniProt P01009)", "assay": "SPR", "data": [{"substance": "Recombinant human insulin receptor/CD220 (28-944) protein, His Tag (from UniProt P06213-2 28-944)", "values": [{"measurement": "Kd", "value": 185, "unit": "nM"}]}]}
